The text below walks through data of US20140294731A1 (AC IMMUNE S A, published 2014).

Substitutions are numbered along the chain they refer to. Where no end group is shown, it is not given here. [ ]: non-standard residue; d: D form. The star is where a group is joined. Biotin = O=C1N[C@H]2[C@H](CS[C@H]2CCCCC(=O)*)N1; pS = N[C@@H](COP(=O)(O)O)C(=O)O; LC linker = not defined here Bounds are passed on as bounds.

Assay [1] deals with T1, T3.30: Biotin-LC linker-GVYKS[PO3H2]PVVSGDTS[PO3H2]PRHL-NH2 (reading uncertain; also: printed as Biotin-LC linker-GVYKS[PO3H2]PVVSGDTS[PO3H2]PRHL-NH2).
T1 construct: Human Tau 393-408 with an added N-terminal Gly; two lots used: MI89P9-P12-2 (64% pure) and MI89P9-P12-3 (87% pure); also called Phospho-tau peptide; phosphopeptide T3.30
T1 peptide: {Biotin-LC linker}-GVYK[pS]PVVSGDT[pS]PRHL-NH2
Description: SPR (Biacore X), T3.30 on streptavidin chip, antibody injected, 1:1 Langmuir fit; peptide lot 87% pure. The protocol: (§1) All SPR experiments were carried out on a Biacore X instrument (GE Healthcare). Sensor chip SA (Streptavidin derivatized carboxymethyl dextran) was purchased from GE Healthcare. Running buffer was PBS (Dulbecco's PBS, Sigma D8537). Non-covalently bound Streptavidin was firstly removed from the sensor surface by injecting 8 pulses (each ˜1 μL) of 16 mM NaOH (aq). Phospho-tau peptide was then solubilized in PBS to give a final peptide concentration of 1 μM and then injected (35 μL) over flow cell (fc) 2 of the sensor chip at 5 μl/min. After coupling, a final immobilization level of 130 RUs was obtained. To study the binding of the antibodies to the chip surface, several concentrations of antibodies were prepared by serial 2-fold dilutions with running buffer. The injections were performed over both fc 1 and 2 at a flow rate of 50 μL/min for 120 s. Flow cell 1 was not derivatized and responses of fc 1 were subtracted from fc 2 to correct for instrument noise and bulk refractive changes. After each injection, the surfaces were washed immediately with running buffer for 100s. To remove any remaining bound antibody from the chip, surface regeneration was performed by injecting 1 μL of 10 mM Glycine-HCl pH 1.7. Kinetic analyses were performed using algorithms for numerical integration and global analysis using BIAevaluation 3.0. The sensograms obtained for injections of antibody at different concentrations were overlaid and the baselines adjusted to zero. For curve fitting, all data were fit simultaneously to a 1:1 homogeneous (Langmuir) model.

Assay [2] deals with T2, non-phosphorylated Tau peptide T3.6: Tau393-408 (human).
T2 construct: Synthetic peptide (PolyPeptide Laboratories); also called non-phospho counterpart of the antigenic peptide; non-phospho-peptide
T2 peptide: VYKSPVVSGDTSPRHL
Description: hybridoma supernatant ELISA screen (conclusion of Example 1). As to the method:
(§2) Hybridomas ELISA screen was performed on pTau peptide (ACl-35, T3.5: Tau393-408[pS396/pS404; PolyPeptide Laboratories, Hillerød, Denmark), the corresponding non-phosphorylated Tau peptide (T3.6: Tau393-408, PolyPeptide Laboratories), phosphorylated full-length (441aa) Tau protein (pTau protein, Vandebroek et al., 2005) and full-length (441aa) Tau protein (Tau protein, SignalChem, Richmond, Canada). Finally Bovine Serum Albumin (BSA) was used as negative control.
(§3) Plates were coated with 10 μg/ml of corresponding Tau peptide and 1 μg/ml of corresponding Tau protein overnight at 4° C. After washing each well with PBS-0.05% Tween 20 and blocking with 1% BSA in PBS-0.05% Tween 20, undiluted hybridoma supernatant or medium negative control were added to the plates and incubated at 37° C. for 2 hours. After washing plates were incubated with an alkaline phosphatase (AP)-conjugated anti-mouse IgG total antibody (Jackson Laboratories, Baltimore, Pa., USA) for 2 hours at 37° C. After washing plates were incubated with pNPP (para-nitro-phenyl-phosphate), the phosphatase substrate for AP, and read at 405 nm using an ELISA plate reader. Results are expressed as O.D. (Optical Density).

Assay [3] deals with T3, pTau peptide T3.5: Tau393-408 [pS396/pS404] (human).
T3 construct: Synthetic peptide (PolyPeptide Laboratories), coated on ELISA plates at 10 µg/mL; also called Tau p-peptide; T3: Tau 393-408 [pS396, pS404]
T3 peptide: VYK[pS]PVVSGDT[pS]PRHL
The assay is described as above. The protocol: as §2, §3

Assay [4] has as its target T1, T3.30: Biotin-LC …. Description: SPR (Biacore X), T3.30 on streptavidin chip, antibody injected, 1:1 Langmuir fit; peptide lot 64% pure. The protocol: as §1
Assay [5] has as its target T4, full-length (441 aa) Tau protein (SignalChem) (human, UniProt P10636 1-758).
T4 construct: Bought recombinant protein; also called Full-length Tau; non-phospho full-length Tau protein
Description: ELISA, plate-coated protein; grade (+ Good binding).

For assay [6], the target named is T5, phosphorylated full-length (441 aa) Tau protein (human, UniProt P10636 1-758, phosphorylated; the sites are not stated (preparation cited as Vandebroek et al., 2005)).
T5 construct: Full-length 441 aa Tau; Coated at 1 µg/mL; also called pTau protein; Full-length pTau
T5 sequence (P10636 other isoform, or with tags, fused parts or gaps limits assumed): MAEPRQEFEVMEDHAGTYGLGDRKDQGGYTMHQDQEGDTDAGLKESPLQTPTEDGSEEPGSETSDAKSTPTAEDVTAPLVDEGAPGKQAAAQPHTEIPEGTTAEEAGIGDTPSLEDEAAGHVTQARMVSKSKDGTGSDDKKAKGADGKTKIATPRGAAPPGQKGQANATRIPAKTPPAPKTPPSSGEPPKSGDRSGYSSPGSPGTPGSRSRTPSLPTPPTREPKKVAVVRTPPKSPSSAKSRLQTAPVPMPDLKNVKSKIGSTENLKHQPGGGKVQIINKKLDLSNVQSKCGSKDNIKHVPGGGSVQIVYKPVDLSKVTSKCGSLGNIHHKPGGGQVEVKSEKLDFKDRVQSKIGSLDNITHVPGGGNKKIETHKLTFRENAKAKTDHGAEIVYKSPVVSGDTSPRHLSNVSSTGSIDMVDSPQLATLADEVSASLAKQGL
Description: ELISA, plate-coated protein.

For assay [7], the target named is T4, full-length (441 aa) Tau protein …. Description: ELISA, plate-coated protein.

T4 sequence (P10636 other isoform, or with tags, fused parts or gaps limits assumed): as above

B1: ACI-35-2A1-Ab1 (antibody, IgG2b, V domains shown)
VH: EVQLQQSGPELVKPGASVKISCKASGYTFTDYYMNWVKQSHGKSLEWIGDINPNNGGTSYNQKFKGKATLTVDKSSSTAYMELRSLTSEDSAVYYCVREGRFAYWGHGTLVTVSA
VL: DIVMTQAAPSVPVTPGESVSISCRSSKSLLHSNGNTYLYWFLQRPGQSPQLLIHRMSNLASGVPDRFSGSGSGTAFTLRISRVEAEDVGVYYCMQHLKSPYTFGGGTKLEIK
notes: Biotinylated (-BT) in the AlphaLISA and as detector in the Setup 1 ELISA; also called ACl-35-2A1-Ab1; hybridoma A4-2A1-18
Regarding B1, in assay [1], the Kd was found to be 38 nM, the koff came to 0.001 s⁻¹ and the kon stood at 27000 M⁻¹ s⁻¹.

B2: ACI-35-2G5-Ab3 (antibody, IgG2b, V domains shown)
VH: B1 VH with Y27F, N61H, H107Q
VL: DIVMTQSQKFMSTSVGDRVSVTCKASQNVGTNVAWYQQKPGQSPKALIYSASYRYSGVPDRFTGSGSGTDFTLTISNVQSEDLAEYFCQQYNSYPYTFGGGTKLEIK
notes: Biotinylated (-BT) in the AlphaLISA and as detector in the Setup 1 ELISA; also called ACl-35-2G5-Ab3; ACl-35-2G5-AB3
As to B2, in assay [1], the Kd stood at 2 nM, the koff was found to be 3.8e-05 s⁻¹ and the on-rate constant (kon) was determined as 17000 M⁻¹ s⁻¹.

B3: ACI-35-2G5-Ab2 (antibody, IgG2b, V domains shown)
VH: B1 VH with Y27F, N61H, H107Q
VL: B2 VL
notes: also called ACl-35-2G5-Ab2; ACl-35-2G5-AB2
In assay [1], B3 registered a Kd of 10 nM, an off-rate constant (koff) of 0.00023 s⁻¹ and a kon of 24000 M⁻¹ s⁻¹.

B4: ACI-35-4A6-Ab2 (antibody, V domains shown)
VH: B1 VH
VL: B1 VL with H54Y
notes: also called ACl-35-4A6-Ab2; hybridoma A4-4A6-48
Take B4: the binding result in assay [2] and in assay [3] was “binds” in each case.

B5: ACI-35-1D2-Ab1 (antibody, IgG2a, V domains shown)
VH: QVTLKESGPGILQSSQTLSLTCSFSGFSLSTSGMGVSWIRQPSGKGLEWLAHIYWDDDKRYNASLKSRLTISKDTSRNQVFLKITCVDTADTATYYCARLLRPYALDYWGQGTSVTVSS
VL: NILMTQSPSSLAVSAGEKVTMSCKSSQSVLYSSNQKNYLAWYQQKPGQSPKLLIYWASTRESGVPDRFTGSGSGTDFTLTISSVQAEDLAVYYCLQYLSSLTFGAGTKLELK
notes: Biotinylated (-BT) in the AlphaLISA; also called ACl-35-1D2-Ab1; hybridoma A6-1D2-12
For B5, in assay [4], the Kd was no more than 6 nM, the koff amounted to 9.3e-06 s⁻¹ and the kon stood at 1600 M⁻¹ s⁻¹. In addition, in assay [1], the Kd came to 82 nM, the koff turned out to be 0.0018 s⁻¹ and the kon worked out at 22000 M⁻¹ s⁻¹.

B6: ACI-35-4A6-Ab1 (antibody, IgG2b, V domains shown)
VH: QVQLQQPGAELLKPGASVKLSCKASGYTFTSYWMHWVKQRPGRGLEWIGRIDPNSDRTKYNEKFKRKATLTVDKSSSTAYMQLSSLTSEDSAVYYCARDDYAWFAYWGQGTLVTVSA
VL: DVLMTQTPLSLPVSLGDQASISCRSSQSIVHSNGNTYLEWYLQKPGQSPKLLIYKLSNRFSGVPDRFSGSGSGTDFTLKISRVEAEDLGVYYCFQGSHVPPTFGGGTKLEIK
notes: also called ACl-35-4A6-Ab1; hybridoma A4-4A6-18
Take B6: the binding result in assay [5] is reported as “binds”. Moreover, in assay [4], the Kd is 16 nM, the koff was found to be 0.0031 s⁻¹ and the kon amounted to 200000 M⁻¹ s⁻¹. Also, in assay [1], the Kd was 15 nM, the koff was determined as 0.0017 s⁻¹ and the kon came to 110000 M⁻¹ s⁻¹.

B7: ACI-35-2G5-Ab1 (antibody, IgG2a, V domains shown)
VH: QVQLKQSGAELVRPGASVKLSCKASGYTFTDYYINWVKQRPGQGLEWIARIYPGRGNIYYNEKFKGKATLTAEKSSSTAYMQLSSLTSEDSAVYFCARFWDVTYWGQGTLVTVSA
VL: B6 VL with Y41F, L56V, P101Y
notes: also called ACl-35-2G5-Ab1; ACl-35-2G5-AB1
In the case of B7, the binding result in assay [6] is reported as “no binding (tested: up to 20 µg/mL antibody)”. Further, in assay [7], the binding result is listed as “no binding (tested: up to 20 µg/mL antibody)”. In assay [4], this molecule registered a Kd of 10 nM, a koff of 0.0053 s⁻¹ and a kon of 480000 M⁻¹ s⁻¹. In assay [1], the Kd is 70 nM, the dissociation rate constant (koff) came out at 0.0022 s⁻¹ and the kon stood at 32000 M⁻¹ s⁻¹.
